The record followed here is patent US5817785.

For data set [1], the target named is T1, HIV-1 Rev protein (HIV-1) (UniProt P04618).
T1 sequence: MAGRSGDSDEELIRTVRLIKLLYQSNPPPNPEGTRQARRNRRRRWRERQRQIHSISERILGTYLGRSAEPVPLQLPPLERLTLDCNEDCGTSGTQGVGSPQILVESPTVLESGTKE
Briefly: filter. The conditions noted are these: background affinity of starting pool.

Data set [2] addresses HIV-1 reverse transcriptase (HIV-RT) (HIV-1) (UniProt P04585+P04585). The experiment in a line: filter.

A word on the Kd: it is a measure of binding affinity in units of concentration. Low values mean a tighter complex, high ones a looser complex. As for “CCCGGAUCCUCUUUACCUCUGUGUGAGAUACAGAGUCCACAAACGUGUUCUCAAUGCACCCGGUCGGAAGGCCAUCAAUAGUCCC”, the Kd in data set [1] stood at 100 nM. That is a sub-micromolar value.

Regarding “GGUCCGAAGUGCAACGGGAAAAUGCACUNNNNGUGARNNNNUGNUCCNNNN [extended HIV-RT ligands, Extension Motif I consensus]”, in data set [2], the binding signal (fold higher affinity than ligand B) is greater than 10.

The sequence “GGUCCGAAGUGCAACGGGAAAAUGCACUNNNNNNAGNNNNNNUGNUGNNNNNNN [extended HIV-RT ligands, Extension Motif II consensus]” displayed a binding signal (fold higher affinity than ligand B) in data set [2] greater than 10.
